These results are taken from patent publication EP2225268B1.

In experiment [1] the target is Native NGAL purchased from Diagnostics Development (Uppsala, Sweden), non-reduced (UniProt P80188). Briefly: … sandwich CMIA, capture HYB 211-01, detection acridinium-HYB 211-02; non-reduced control sample.
Experiment [2] deals with Wild-type recombinant human NGAL dimer calibrators treated with DTT (human) (UniProt P80188). Put plainly: … sandwich CMIA, capture HYB 211-01, detection acridinium-HYB 211-02; curve fit with monomer calibrators; target 250 ng/mL.
Experiment [3] has as its target Wild-type recombinant human NGAL monomer expressed in CHO cells (human) (UniProt P80188). The description is as above.
Experiment [4] deals with Wild-type recombinant human NGAL dimer expressed in CHO cells (human) (UniProt P80188). The description is as above.
Experiment [5] concerns the target Wild-type recombinant human NGAL dimer calibrators treated with DTT (human) (UniProt P80188). Put plainly: … sandwich CMIA, capture HYB 211-01, detection acridinium-HYB 211-02; curve fit with monomer calibrators; target 1000 ng/mL.
The target in experiment [6] is Wild-type recombinant human NGAL monomer expressed in CHO cells (human) (UniProt P80188). The description is as above.
For experiment [7], the target named is Wild-type recombinant human NGAL dimer expressed in CHO cells (human) (UniProt P80188). The experiment is described as above.
For experiment [8], the target named is Wild-type recombinant human NGAL dimer calibrators treated with DTT (human) (UniProt P80188). Briefly: … sandwich CMIA, capture HYB 211-01, detection acridinium-HYB 211-02; NGAL 600 ng/mL.
The target in experiment [9] is Wild-type recombinant human NGAL monomer expressed in CHO cells (human) (UniProt P80188). The description is as above.
Experiment [10] concerns the target Native NGAL purchased from Diagnostics Development (Uppsala, Sweden), non-reduced (UniProt P80188). The experiment is described as above.
The target of experiment [11] is Wild-type recombinant human NGAL dimer expressed in CHO cells (human) (UniProt P80188). The description is as above.
In experiment [12] the target is Wild-type recombinant human NGAL dimer calibrators treated with DTT (human) (UniProt P80188). Briefly: … sandwich CMIA, capture HYB 211-01, detection acridinium-HYB 211-02; DTT-treated against untreated dimer calibrator; target 5 ng/mL.
Experiment [13] has the same target. Briefly: … sandwich CMIA, capture HYB 211-01, detection acridinium-HYB 211-02; DTT-treated against untreated dimer calibrator; target 250 ng/mL.
For experiment [14], the target named is Wild-type recombinant human NGAL dimer calibrators with TCEP in the reaction mixture (human) (UniProt P80188). Briefly: … sandwich CMIA, capture 1-2322-455, detection acridinium-1-903-430; TCEP in reaction; NGAL 5 ng/mL.
Experiment [15] has as its target Wild-type recombinant human NGAL monomer expressed in CHO cells (human) (UniProt P80188). Briefly: … sandwich CMIA, capture 1-2322-455, detection acridinium-1-903-430; monomer calibrator plus TCEP; curve fit with monomer calibrators; target 250 ng/mL.
For experiment [16] the target is unchanged. Put plainly: … sandwich CMIA, capture 1-2322-455, detection acridinium-1-903-430; monomer calibrator plus TCEP; NGAL 5 ng/mL.
Experiment [17] has the same target. Put plainly: … sandwich CMIA, capture 1-2322-455, detection acridinium-1-903-430; monomer calibrator plus TCEP; curve fit with monomer calibrators; target 5 ng/mL.
For experiment [18], the target named is Wild-type recombinant human NGAL dimer calibrators with TCEP in the reaction mixture (human) (UniProt P80188). Briefly: … sandwich CMIA, capture 1-2322-455, detection acridinium-1-903-430; TCEP in reaction; curve fit with monomer calibrators; target 250 ng/mL.
For experiment [19] the target is unchanged. Put plainly: … sandwich CMIA, capture 1-2322-455, detection acridinium-1-903-430; TCEP in reaction; curve fit with monomer calibrators; target 5 ng/mL.
Experiment [20] has as its target Wild-type recombinant human NGAL monomer expressed in CHO cells (human) (UniProt P80188). Put plainly: … sandwich CMIA, capture 1-2322-455, detection acridinium-1-903-430; curve fit with monomer calibrators; target 1000 ng/mL.
For experiment [21], the target named is Wild-type recombinant human NGAL dimer expressed in CHO cells (human) (UniProt P80188). The description is as above.
Experiment [22] concerns the target Wild-type recombinant human NGAL monomer expressed in CHO cells (human) (UniProt P80188). Briefly: … sandwich CMIA, capture 1-2322-455, detection acridinium-1-903-430; NGAL 50 ng/mL.
The target of experiment [23] is Wild-type recombinant human NGAL dimer expressed in CHO cells (human) (UniProt P80188). The description is as above.
The target in experiment [24] is Wild-type recombinant human NGAL dimer calibrators with TCEP in the reaction mixture (human) (UniProt P80188). Put plainly: … sandwich CMIA, capture 1-2322-455, detection acridinium-1-903-430; TCEP in reaction; NGAL 50 ng/mL.
Experiment [25] addresses Wild-type recombinant human NGAL monomer expressed in CHO cells (human) (UniProt P80188). Briefly: … sandwich CMIA, capture 1-2322-455, detection acridinium-1-903-430; monomer calibrator plus TCEP; NGAL 600 ng/mL.

Turning to “anti-NGAL antibody HYB 211-01 from AntibodyShop A/S, Gentofte, Denmark”, the NGAL concentration detected in experiment [1] came to 13.7 ng/mL. The Curve Fit Results in [2] was 236 ng/mL; in experiment [3] it was 251 ng/mL; in [4], 71.8 ng/mL; in experiment [5], 924 ng/mL; in experiment [6], 1000 ng/mL; in experiment [7], 245 ng/mL. Also, the RLUs in [8] turned out to be 676000 RLUs; in experiment [9], 691000 RLUs; in [10], 1.07e+06 RLUs; in [11], 282000 RLUs. The % Increase due to DTT in experiment [12] and in [13] was 229% in each case.

B1: antibody produced by murine hybridoma cell line 1-2322-455 having ATCC Accession No. PTA-8024 (antibody, V domains shown)
VH: EVQLVESGGGLVQPGGSLKLSCAASGFTFNNYYMSWVRQTPERRLEWVAYISSSGGSTYYSDSVRGRFTISRDTARNTLYLQMTSLKSEDTAMYYCARHFGDYSYFDYWGQGTTLTVSS
VL: DIQMTQSPASLSASVGETVTITCRASENFYSYLAWYQQKQGKSPQLLVYNAKTLAEGVPSRFSGSGSGTQFSLKINSLQPEDFGTYYCQHHYDIPLTFGAGTKLELKR
In the case of B1, the RLUs in experiment [14] was 15000 RLUs; in experiment [16], 29300 RLUs; in [22], 240000 RLUs; in experiment [23] it was 76800 RLUs; in [24] it was 132000 RLUs; in [25], 1.53e+06 RLUs. In addition, the Curve Fit Results in experiment [15] was determined as 266 ng/mL; in experiment [17] it was 4.6 ng/mL; in [18], 126 ng/mL; in experiment [19], 2.2 ng/mL; in experiment [20], 1010 ng/mL; in experiment [21], 294 ng/mL.
